Target: T1, pM-Gal4DBD-AR (amino acids 624-919), P10275
T1 chain: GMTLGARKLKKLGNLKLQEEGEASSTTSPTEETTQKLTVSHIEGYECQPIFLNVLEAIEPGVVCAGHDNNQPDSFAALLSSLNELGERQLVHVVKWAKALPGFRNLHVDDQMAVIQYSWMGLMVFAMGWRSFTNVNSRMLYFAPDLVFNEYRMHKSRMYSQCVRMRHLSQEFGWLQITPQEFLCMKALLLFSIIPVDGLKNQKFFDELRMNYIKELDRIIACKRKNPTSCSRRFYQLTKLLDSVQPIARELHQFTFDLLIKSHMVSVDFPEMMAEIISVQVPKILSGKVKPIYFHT
Assay: mammalian two-hybrid
Settings: chain shown with the change, HEK293T cells, read off a plot

B1: pVP16-AR111Q (amino acids 12-660), P10275 F23A (protein)
chain: PRPPSKTYRGAAQNLFQSVREVIQNPGPRHPEAASAAPPGASLLLLQQQQQQQQQQQQQQQQQQQQQQQETSPRQQQQQQGEDGSPQAHRRGPTGYLVLDEEQQPSQPQSALECHPERGCVPEPGAAVAASKGLPQQLPAPPDEDDSAAPSTLSLLGPTFPGLSSCSADLKDILSEASTMQLLQQQQQEAVSEGSSSGRAREASGAPTSSKDNYLGGTSTISDNAKELCKAVSVSMGLGVEALEHLSPGEQLRGDCMYAPLLGVPPAVRPTPCAPLAECKGSLLDDSAGKSTEDTAEYSPFKGGYTKGLEGESLGCSGSAAAGSSGTLELPSTLSLYKSGALDEAAAYQSRDYYNFPLALAGPPPPPPPPHPHARIKLENPLDYGSAWAAAAAQCRYGDLASLHGAGAAGPGSGSPSAAASSSWHTLFTAEEGQLYGPCGGGGGGGGGGGGGGGGGGGGGGGEAGAVAPYGYTRPPQGLAGQESDFTAPDVWYPGGMVSRVPYPSPTCVKSEMGPWMDSYSGPYGDMRLETARDHVLPIDYYFPPQKTCLICGDEASGCHYGALTCGSCKVFFKRAAEGKQKYLCASRNDCTIDKFRRKNCPSCRLRKCYEAGMTLGARKLKKLGNLKLQEEGEASSTTSPTEETTQKL
With B1 the response (Relative Luciferase Units) (DHT treated, parent: est. 2.4) was 0.35 and the other: Average Fold Change (DHT/EtOH treated) (DHT versus EtOH, parent: est. 2.2) was 0.9.

Source: PMC11067348
